For two molecules, binding result and Kd results are on record in paper PMC5797297, “92R Monoclonal Antibody Inhibits Human CCR9^+ Leukemia Cells Growth in NSG Mice Xenografts” (Frontiers in Immunology, 2018).

The target in experiment [1] is T1, hCCR9(2–22) synthetic peptide (coat of the ELISA; competitor in SPR) (Homo sapiens, CCR9 isoform A, UniProt P51686).
T1 construct: human CCR9 isoform A, residues 2-22; May be the same peptide as m5; also called hCCR9 (aa 2–22) synthetic peptide; peptide hCCR9 (2–22); source: synthetic peptide
T1 chain: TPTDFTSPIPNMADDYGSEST
Nature of the experiment: ELISA; competitive ELISA: hCCR9(2–22) peptide coated at 1 µg/ml in PBS overnight at 4°C; biotin-labeled mAb mixed with unlabeled mAb (2 µg/ml in PBS–0.5% BSA), 1 h at room temperature; peroxidase-labeled streptavidin. The settings on record: both partners purified. In general terms: An ELISA detects its analyte on a solid surface through an enzyme-linked reagent.

Experiment [2] has as its target T2, synthetic peptide hCCR9A aa 2–22 with an additional N-terminal cysteine (Homo sapiens (Human).).
T2 construct: additional cysteine residue at the N terminus; human CCR9 isoform A, residues 2-22; Amine-coupled to a CM5 chip for the kinetic SPR; also called hCCR9 (2–22); source: synthetic peptide
T2 chain: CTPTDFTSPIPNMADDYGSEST
Nature of the experiment: SPR; Biacore 3000; Cys-hCCR9A(2–22) peptide amine-coupled at low density to a CM5 chip; mAb as analyte at 0.41 to 33 nM; HBS-EP pH 7.4, 25°C, 30 µl/min; bivalent analyte model; apparent. The settings on record: both partners purified. On the technique in general: In SPR one partner is held on a chip, and binding of the other changes the refractive index at the surface.

The target of experiment [3] is T3, peptide hCCR9 (13–30), corresponding to the N-terminus of the B isoform (Homo sapiens, UniProt P51686-1).
T3 construct: human CCR9, residues 13-30 on the numbering of isoform A (the B isoform starts in M13 of hCCR9-A); source: synthetic peptide
T3 chain: MADDYGSESTSSMEDYVN
Nature of the experiment: SPR; competition: biotin-K-hCCR9A(2–19) captured on a streptavidin (SA) chip; mAb at 10 nM preincubated 30 min with competitor peptide (0.01–1 µM; 1 µM in Figure 6C,D); HBS-EP pH 7.4. Conditions: both partners purified.

Experiment [4] addresses T4, peptide hCCR9 (10–30) (Homo sapiens (Human)., UniProt P51686-1).
T4 construct: human CCR9 isoform A, residues 10-30; source: synthetic peptide
T4 chain: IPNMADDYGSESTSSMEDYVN
Described as above. Conditions: both partners purified.

The target in experiment [5] is T5, endogenous CCR9 on MOLT-4 human T-ALL cells (Homo sapiens (Human)., UniProt P51686).
T5 construct: human CCR9 as expressed by MOLT-4 cells; also called CCR9^+ MOLT-4 cells; source: endogenous, on MOLT-4 cells
Nature of the experiment: flow cytometry on cells; 2 x 10^5 cells blocked with 40 µg/ml rat IgG, incubated with the primary mAb 30 min at 4°C in PBS pH 7.4 with 0.5% BSA, 1% FBS, 0.1% sodium azide; revealed with FITC- or PE-goat F(ab')2 anti-mouse IgG. Conditions: one partner purified. (In general: In flow cytometry, cells or beads pass a laser one at a time.)

The target of experiment [6] is T6, human chemokine receptor CCR9, A isoform, on stably transfected HEK-293 cells (Homo sapiens (Human)., UniProt P51686-1).
T6 construct: also called hCCR9-A; hCCR9-HEK-293; source: HEK-293, stably transfected (pCIneo-hCCR9), on cells
The description is as above. Conditions: one partner purified.

T5 sequence (P51686 whole entry): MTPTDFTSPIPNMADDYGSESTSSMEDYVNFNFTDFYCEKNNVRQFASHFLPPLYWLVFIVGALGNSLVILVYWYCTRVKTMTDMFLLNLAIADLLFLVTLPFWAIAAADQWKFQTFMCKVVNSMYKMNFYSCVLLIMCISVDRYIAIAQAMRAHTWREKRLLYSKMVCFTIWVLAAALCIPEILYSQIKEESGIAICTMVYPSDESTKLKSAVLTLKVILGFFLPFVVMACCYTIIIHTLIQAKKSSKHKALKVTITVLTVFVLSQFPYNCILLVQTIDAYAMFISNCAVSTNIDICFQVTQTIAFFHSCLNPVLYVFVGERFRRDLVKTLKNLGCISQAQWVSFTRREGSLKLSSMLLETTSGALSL
T6 sequence (P51686 whole entry, canonical isoform): as the sequence (P51686 whole entry) above

B1: 92R, mouse anti-human CCR9 monoclonal antibody (IgG2a) (antibody, V domains shown)
VH: EVKLEESGGGLVQPGGSMKLSCVASGFTFNKFWMNWVRQSPEKGLEWVAEIRLKSNNYATHYAESVKGRFTISRDDSKSSVYLQMNNLRAEDTGIYYCASDGWFAYWGQGTLVTVSA
VL: DVVMTQTPLSLPVSLGDQASISCRSSQSLVHSNGNTYLNWCLQRPGQSPKSLIYKVSNRFSGVPDRFSGSGSGTDFTLKISRVEAEDLGVYFCSQSTHFPRTFGGGTKLEIK
notes: heavy chain variable region of 92R; mouse IgG2a heavy chain constant region (isotype as stated); light chain variable region of 92R; light chain constant region; IgG2a; also called 92R mAb; anti-hCCR9 92R; source: mouse hybridoma, mAb purified from culture supernatants
Consider B1, for which the binding result in experiment [1] is on record as “binds”; in experiment [3], “no binding (tested: 1 µM)”; in experiment [4], “binds”; in experiment [5] it was “binds”; in experiment [6], “binds”. In addition, the Kd in experiment [2] was 8.9 nM.

B2: 91R, mouse anti-human CCR9 monoclonal antibody (IgG2b) (antibody, V domains shown)
VH: EVKLEDSGGGLVQPGRSMKLSCVASGFTFSNFWMNWVRQSPEKGLEWVAEIRLKSNNYATHYAESVKGRFTISRDDSKSSVYLQMNNLRTEDTGIYYCTSDGWFAYWGQGTLVTVSA
VL: DVVMTQTPLSLPVSLGDQTSISCRSSQSLLHSNGNTYVQWYLRKPGQSPKLLIYKVSNRFPGVPDRFSGSGSGTDFTFKISRVEAEDLGVYFCAQSTHVPRTFGGGTKLEIK
notes: heavy chain variable region of 91R; mouse IgG2b heavy chain constant region (isotype as stated); light chain variable region of 91R; light chain constant region; IgG2b; also called 91R mAb; anti-hCCR9 91R; source: mouse hybridoma, mAb purified from culture supernatants
Regarding B2, the binding result in experiment [1] is reported as “binds”; in experiment [3], “no binding (tested: 1 µM)”; in experiment [5], “binds”. Moreover, the Kd in experiment [2] stood at 3.6 nM.
